Results: patent US20240010735A1 (EISAI R AND D MANAGEMENT, published 2024)

Experiments:
Assay in all cases: ELISA: Fc-His proteins (1 nM) captured on anti-6-His antibody, antibody B 10 µg/mL with human IgG 100 µg/mL, HRP anti-human kappa light chain antibody, OD450 as % of mouse EphA4-Fc-His
[1] = molecular target: T1, mouse EphA2 extracellular region-Fc-His protein (mouse, UniProt Q03145 26-538)
T1 construct: extracellular domain; Cloned into a pcDNA 3.1 vector separately from the other mouse Eph receptors; not shown: Fc; histidine tag
Procedure: (§1) Rabbit anti-6-His antibodies (Bethyl Laboratories) were coated onto the wells of a 96-well plate (Nunc). After incubating at 4° C. overnight, the wells were blocked at room temperature for 1 hour by 1% Block Ace (DS Pharma Biomedical). After washing 3 times with 0.05% Tween 20/PBS (Thermo […]), each Eph receptor of mouse extracellular region-Fc-His protein (final concentration 1 nM) was seeded into each well, and incubated at room temperature for 1 hour. After washing 3 times, human IgG solution (100 μg/mL, Sigma) and antibody B (10 μg/mL) were supplemented to the wells, and incubated at room temperature for 1 hour. Horseradish peroxidase-labeled goat anti-human Kappa Light Chain antibody (IBL) was added, and incubated at room temperature for 1 hour. After washing 3 times, TMBZ (3,3′,5,5′-tetramethylbenzidine, Sigma) solution was added to the wells, and upon confirmation of modest coloring, an equal amount of quenching solution (1 N H₂SO₄, Wako Pure Chemicals) was added to the wells, and absorbance at 450 nm was read by a microplate reader (PerkinElmer).

[2] = molecular target: T2, mouse EphA7 extracellular region-Fc-His protein (mouse; human, UniProt Q61772 28-555)
T2 construct: extracellular domain; not shown: Fc region of human IgG1; histidine tag
T2 sequence (looked up): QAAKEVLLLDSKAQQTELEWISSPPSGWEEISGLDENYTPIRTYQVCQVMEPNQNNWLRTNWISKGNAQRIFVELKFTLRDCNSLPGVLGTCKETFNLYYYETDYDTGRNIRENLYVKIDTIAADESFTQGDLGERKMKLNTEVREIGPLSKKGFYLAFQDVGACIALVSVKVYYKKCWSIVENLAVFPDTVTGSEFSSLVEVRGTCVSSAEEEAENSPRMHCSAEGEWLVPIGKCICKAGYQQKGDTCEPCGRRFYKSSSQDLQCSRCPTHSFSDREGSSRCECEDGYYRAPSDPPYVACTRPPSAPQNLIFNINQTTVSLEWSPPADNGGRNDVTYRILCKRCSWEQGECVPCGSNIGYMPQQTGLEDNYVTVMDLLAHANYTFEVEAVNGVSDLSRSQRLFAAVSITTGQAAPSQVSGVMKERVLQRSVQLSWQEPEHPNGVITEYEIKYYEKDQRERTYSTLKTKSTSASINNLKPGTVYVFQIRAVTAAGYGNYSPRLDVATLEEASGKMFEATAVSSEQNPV
Procedure: as §1

[3] = molecular target: T3, mouse EphB1 extracellular region-Fc-His protein (mouse; human, UniProt Q8CBF3 18-540)
T3 construct: extracellular domain; not shown: Fc region of human IgG1; histidine tag
T3 sequence (looked up): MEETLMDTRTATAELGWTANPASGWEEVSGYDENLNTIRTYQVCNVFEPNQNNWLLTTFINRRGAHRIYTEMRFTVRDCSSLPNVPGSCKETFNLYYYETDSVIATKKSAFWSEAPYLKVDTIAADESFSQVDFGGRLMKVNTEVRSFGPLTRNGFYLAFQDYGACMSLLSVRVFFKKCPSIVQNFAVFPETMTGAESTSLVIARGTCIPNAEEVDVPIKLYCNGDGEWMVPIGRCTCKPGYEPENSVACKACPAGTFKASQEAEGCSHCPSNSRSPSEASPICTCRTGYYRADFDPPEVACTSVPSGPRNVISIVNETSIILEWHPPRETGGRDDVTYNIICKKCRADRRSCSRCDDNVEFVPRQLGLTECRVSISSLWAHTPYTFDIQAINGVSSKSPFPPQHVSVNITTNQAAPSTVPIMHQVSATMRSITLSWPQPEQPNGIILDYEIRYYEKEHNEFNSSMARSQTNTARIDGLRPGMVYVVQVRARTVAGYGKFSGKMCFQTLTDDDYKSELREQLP
Procedure: as §1

[4] = molecular target: T4, mouse EphB6 extracellular region-Fc-His protein (mouse; human, UniProt O08644 33-591)
T4 construct: extracellular domain; not shown: Fc region of human IgG1; histidine tag
T4 sequence (looked up): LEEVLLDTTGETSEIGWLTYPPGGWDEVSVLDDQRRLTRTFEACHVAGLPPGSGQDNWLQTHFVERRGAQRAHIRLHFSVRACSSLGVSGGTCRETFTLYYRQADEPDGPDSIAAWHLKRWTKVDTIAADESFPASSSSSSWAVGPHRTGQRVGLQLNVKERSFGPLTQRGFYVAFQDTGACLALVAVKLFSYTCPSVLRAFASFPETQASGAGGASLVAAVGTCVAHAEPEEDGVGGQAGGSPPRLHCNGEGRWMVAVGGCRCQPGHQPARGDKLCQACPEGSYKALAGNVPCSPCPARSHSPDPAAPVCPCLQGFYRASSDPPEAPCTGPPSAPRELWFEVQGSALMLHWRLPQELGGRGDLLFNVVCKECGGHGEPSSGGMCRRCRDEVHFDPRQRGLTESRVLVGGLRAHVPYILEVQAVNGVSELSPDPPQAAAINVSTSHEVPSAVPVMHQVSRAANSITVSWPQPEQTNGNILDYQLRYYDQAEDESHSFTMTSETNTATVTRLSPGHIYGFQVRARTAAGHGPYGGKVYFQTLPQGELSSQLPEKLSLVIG
Procedure: as §1

Measured: binding result

T1 sequence (Q03145 26-538): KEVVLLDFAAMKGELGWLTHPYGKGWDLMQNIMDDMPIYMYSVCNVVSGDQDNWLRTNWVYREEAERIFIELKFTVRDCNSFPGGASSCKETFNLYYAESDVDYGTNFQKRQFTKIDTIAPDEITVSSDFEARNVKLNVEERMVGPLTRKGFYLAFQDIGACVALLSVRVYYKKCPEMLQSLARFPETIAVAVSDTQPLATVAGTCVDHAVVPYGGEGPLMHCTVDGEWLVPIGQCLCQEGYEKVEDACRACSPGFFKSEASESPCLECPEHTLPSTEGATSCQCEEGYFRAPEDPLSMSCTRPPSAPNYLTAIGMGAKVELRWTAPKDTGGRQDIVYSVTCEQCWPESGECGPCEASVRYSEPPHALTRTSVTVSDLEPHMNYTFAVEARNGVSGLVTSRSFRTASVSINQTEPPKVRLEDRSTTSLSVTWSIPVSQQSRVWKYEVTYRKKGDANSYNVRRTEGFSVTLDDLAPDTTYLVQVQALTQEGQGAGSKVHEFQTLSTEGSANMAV

B1: humanized anti-EphA4 monoclonal antibody (antibody B) (antibody, human IgG2, V domains shown)
VH: QVQLVESGGGVVQPGRSLRLSCAVSGFSLTRFGVHWVRQAPGKGLEWVAVIWRGGSTDYNAAFMSRLTISKDNSKNTVYLQMNSLRAEDTAVYYCAKESLFGVYYDYGYYSMDYWGQGTTVTVSS
VL: DIQMTQSPSSLSASVGDRVTITCRASQEISGYLSWLQQKPGKAPKRLIYAASTLDSGVPSRFSGSRSGTEYTLTISSLQPEDFATYYCLQYASYPLTFGGGTKVEIKR
notes: expressed in Expi293F cells; also called humanized antibody of antibody A; HK2-42 / L1-8
no binding (tested: 10 µg/mL): all assays above
